Measured values from patent publication US20180371086A1 (Gilead, published 2018).

Key:
Assay in all cases: cell-based or functional assay
[1] = target: HIV-1 Env of virus MGRM-AG-008 (HIV-1)
[2] = target: HIV-1 Env of virus MGRM-D-014 (HIV-1)
[3] = target: HIV-1 Env of virus MGRM-D-011 (HIV-1)
[4] = target: HIV-1 Env of virus MGRM-F1-010 (HIV-1)
[5] = target: HIV-1 Env of virus MGRM-F1-018 (HIV-1)
[6] = target: HIV-1 Env of virus MGRM-F1-013 (HIV-1)
[7] = target: HIV-1 Env of virus MGRM-F1-012 (HIV-1)
[8] = target: HIV-1 Env of virus MGRM-G-001 (HIV-1)
[9] = target: HIV-1 Env of virus MGRM-G-019 (HIV-1)
[10] = target: HIV-1 Env of virus MGRM-G-024 (HIV-1)
[11] = target: HIV-1 Env of virus MGRM-G-004 (HIV-1)
[12] = target: HIV-1 Env of virus MGRM-G-013 (HIV-1)
[13] = target: HIV-1 Env of virus MGRM-Chronic-B-004 (HIV-1)
[14] = target: HIV-1 Env of virus MGRM-Acute-B-005 (HIV-1)
[15] = target: HIV-1 Env of virus MGRM-Chronic-B-023 (HIV-1)
[16] = target: HIV-1 Env of virus MGRM-Chronic-B-010 (HIV-1)
[17] = target: HIV-1 Env of virus MGRM-Chronic-B-009 (HIV-1)
[18] = target: HIV-1 Env of virus MGRM-Acute-B-003 (HIV-1)
[19] = target: HIV-1 Env of virus MGRM-Acute-B-007 (HIV-1)
[20] = target: HIV-1 Env of virus MGRM-Chronic-B-016 (HIV-1)
[21] = target: HIV-1 Env of virus MGRM-Acute-B-010 (HIV-1)
[22] = target: HIV-1 Env of virus MGRM-Chronic-B-012 (HIV-1)
[23] = target: HIV-1 Env of virus MGRM-Acute-B-006 (HIV-1)
[24] = target: HIV-1 Env of virus MGRM-Chronic-B-001 (HIV-1)
[25] = target: HIV-1 Env of virus MGRM-Chronic-B-014 (HIV-1)
[26] = target: HIV-1 Env of virus MGRM-Chronic-B-019 (HIV-1)
[27] = target: HIV-1 Env of virus MGRM-C-026 (HIV-1)
[28] = target: HIV-1 Env of virus MGRM-C-011 (HIV-1)
[29] = target: HIV-1 Env of virus MGRM-C-027 (HIV-1)
[30] = target: HIV-1 Env of virus MGRM-C-022 (HIV-1)
[31] = target: HIV-1 Env of virus MGRM-C-008 (HIV-1)
[32] = target: HIV-1 Env of virus MGRM-C-004 (HIV-1)
[33] = target: HIV-1 Env of virus MGRM-C-005 (HIV-1)
[34] = target: HIV-1 Env of virus MGRM-C-016 (HIV-1)
[35] = target: HIV-1 Env of virus MGRM-C-012 (HIV-1)
[36] = target: HIV-1 Env of virus MGRM-C-028 (HIV-1)
[37] = target: HIV-1 Env of virus MGRM-C-020 (HIV-1)
[38] = target: HIV-1 Env of virus MGRM-A-002 (HIV-1)
[39] = target: HIV-1 Env of virus MGRM-A-009 (HIV-1)
[40] = target: HIV-1 Env of virus MGRM-A-013 (HIV-1)
[41] = target: HIV-1 Env of virus MGRM-A-010 (HIV-1)
[42] = target: HIV-1 Env of virus MGRM-AG-009 (HIV-1)

B1: PGT121.60 hIgG1/hLambda (antibody)
heavy: QMQLQESGPGLVKPSETLSLTCSVSGASISDSYWSWIRRSPGKGLEWIGYVHKSGDTNYNPSLKSRVHLSLDTSKNQVSLSLTGVTAADSGKYYCARTLHGRRIYGIVAFNEWFTYFYMDVWGTGTQVTVSSASTKGPSVFPLAPSSKSTSGGTAALGCLVKDYFPEPVTVSWNSGALTSGVHTFPAVLQSSGLYSLSSVVTVPSSSLGTQTYICNVNHKPSNTKVDKKVEPKSCDKTHTCPPCPAPELLAGPDVFLFPPKPKDTLMISRTPEVTCVVVDVSHEDPEVKFNWYVDGVEVHNAKTKPREEQYNSTYRVVSVLTVLHQDWLNGKEYKCKVSNKALPLPEEKTISKAKGQPREPQVYTLPPSREEMTKNQVSLTCLVKGFYPSDIAVEWESNGQPENNYKTTPPVLDSDGSFFLYSKLTVDKSRWQQGNVFSCSVLHEALHSHYTQKSLSLSPGK
light: not shown
PGT121.60 IC50 [1]: 1.71 µg/mL
PGT121.60 IC50 [2]: 0.0019 µg/mL
PGT121.60 IC50 [3]: 0.0043 µg/mL
PGT121.60 IC50 [4]: 0.0125 µg/mL
PGT121.60 IC50 [5]: 0.0201 µg/mL
PGT121.60 IC50 [6]: 0.0871 µg/mL
PGT121.60 IC50 [7]: 1.19 µg/mL
PGT121.60 IC50 [8]: 0.005 µg/mL
PGT121.60 IC50 [9]: 0.0091 µg/mL
PGT121.60 IC50 [10]: 0.0119 µg/mL
PGT121.60 IC50 [11]: 0.046 µg/mL
PGT121.60 IC50 [12]: 1.5 µg/mL
PGT121.60 IC50 [13]: 0.0013 µg/mL
PGT121.60 IC50 [14]: 0.0014 µg/mL
PGT121.60 IC50 [15]: 0.0034 µg/mL
PGT121.60 IC50 [16]: 0.0074 µg/mL
PGT121.60 IC50 [17]: 0.0112 µg/mL
PGT121.60 IC50 [18]: 0.0179 µg/mL
PGT121.60 IC50 [19]: 0.0255 µg/mL
PGT121.60 IC50 [20]: 0.0283 µg/mL
PGT121.60 IC50 [21]: 0.0328 µg/mL
PGT121.60 IC50 [22]: 0.0409 µg/mL
PGT121.60 IC50 [23]: 0.0966 µg/mL
PGT121.60 IC50 [24]: 0.0985 µg/mL
PGT121.60 IC50 [25]: 0.133 µg/mL
PGT121.60 IC50 [26]: 0.199 µg/mL
PGT121.60 IC50 [27]: 0.0004 µg/mL
PGT121.60 IC50 [28]: 0.0012 µg/mL
PGT121.60 IC50 [29]: 0.0038 µg/mL
PGT121.60 IC50 [30]: 0.0038 µg/mL
PGT121.60 IC50 [31]: 0.0044 µg/mL
PGT121.60 IC50 [32]: 0.0064 µg/mL
PGT121.60 IC50 [33]: 0.0078 µg/mL
PGT121.60 IC50 [34]: 0.0137 µg/mL
PGT121.60 IC50 [35]: 0.0338 µg/mL
PGT121.60 IC50 [36]: 0.744 µg/mL
PGT121.60 IC50 [37]: 14.9 µg/mL
PGT121.60 IC50 [38]: 0.0047 µg/mL
PGT121.60 IC50 [39]: 0.0074 µg/mL
PGT121.60 IC50 [40]: 0.0561 µg/mL
PGT121.60 IC50 [41]: 0.745 µg/mL
PGT121.60 IC50 [42]: 0.0868 µg/mL
